Values joined by “and” are separate entries in the source; they are usually repeats but may differ in a detail not shown here. Identical values can stand only once. Like-named read-outs stand apart in the source and are kept apart here.
What was measured:
CK1 and CK2 = experiment: In vitro phosphorylation of peptide by CK1 and CK2 combined (32P scintillation); format: biochemical; conditions: for average number of phosphates per peptide: SD in parenthesis
Source text: (§1) R-SSD3 indicated by SEQ NO. […] ATP was used for the scintillation counter experiments.

Casein Kinase 2 (CK2) = target: T1, Casein Kinase 2 (CK2) (Homo sapiens, UniProt P68400); experiment: In vitro phosphorylation of peptide by CK2 (32P scintillation / autoradiography); format: biochemical; conditions: for average number of phosphates per peptide: SD in parenthesis
T1 construct: purchased Millipore Inc. 14-197
Source text: as §1

type I collagen fibrils = target: T2, type I collagen fibrils (Rattus norvegicus, UniProt P02454+P02466); experiment: On-grid mineralization of reconstituted collagen fibrils (TEM/SAED)
T2 construct: from an acidic rat tail collagen solution; from tissue; host or cells: rat tail
Experimental: Mineralization experiments were carried out using a modification of an “on grid” mineralization setup developed in a lab and published in the art. The type I collagen fibrils were reconstituted on carbon-coated Cu grids, mesh #400 (EMS, Hatfield, Pa.) from an acidic rat tail collagen solution. Concentrated 10×PBS (mono- and disodium phosphate totaling 40 mM and 1.5 M NaCl), phosphorylated with CK2 and nonphosphorylated protein stock solution, […] to obtain 4 mM PBS, 1.67 mM Ca and 15 μg/ml peptide. Prior to the experiments, the pH of concentrated 10×PBS was adjusted such that upon mixing, the pH of the final mineralization solution was 7.8. The TEM grids coated with reconstituted collagen fibrils were floated on 50 μL droplets of the mineralization solution at 100% humidity for 16 hours at 37° C.
TEM and selected area electron diffraction (SAED) studies were conducted using JEOL 1210 operated at 100 kV. The micrographs were recorded using an AMT CCD camera (AMT, Danvers, Mass.). An aluminum-coated TEM grid (EMS Hatfield, Pa.) was used as a standard for the calibration of SAED patterns for d-spacing calculations. The micrographs were analyzed using an ImageJ 1.38 software package (Bethesda, Md.).

mixture of CK1 and CK2 = experiment: Mass spectrometry identification of phosphates incorporated by a mixture of CK1 and CK2; format: biochemical; conditions: MS, one hour
Experimental: For mass spectrometry (MS) analysis, the reaction was performed as above, however, radiolabeled ATP was not used and the reaction mixture was transferred into a Tube-O-DIALYZER with a MWCO of 1000 and dialyzed overnight.
For MALDI-TOF-MS analysis, the peptides and CHCA matrix (α-cyano-4-hydroxycinnamic acid, 10 μg/μl, in 50% acetonitrile containing 0.1% trifluoroacetic acid) solutions were premixed in a small Eppendorf tube, spun down and remixed three times, then applied directly to the sample plate. Once applied to the target, the sample was allowed to air dry. The samples were analyzed using an Applied Biosystems (Foster City, Calif.) Voyager DE Pro or 4700 Proteomics Analyzer TOF/TOF instrument. The samples were also analyzed by LC-MS/MS on a ThermoFischer (Waltham, Mass.) Surveyor LC System coupled to a ThermoFischer LCQ Deca XP Plus mass spectrometer equipped with a nanospray ion source and also a ThermoFischer LTQ-XL instrument. The LC System contained a sample trap followed by a C18 column (BioBasic C18 PicoFrit column, 10 cm×75 μM, New Objective, Inc., Woburn, Mass.). […]
Upon elution of the C18 column, the analyte was ionized by nano-capillary ESI. […] The MS/MS spectra were analyzed with BioWorks 3.2 Browser with the Sequest search engine. […]

Casein Kinase 1 (CK1) = conditions: for average number of phosphates per peptide: SD in parenthesis
Experimental: R-SSD3 indicated by SEQ NO. 2 was phosphorylated in vitro by CK1, CK2 or a mixture of both kinases. ATP was used as a source of phosphate; and [γ-^32P] ATP was used for the scintillation counter experiments. The standard assay mixture consisted of 50 mM Tris-HCl, pH 7.4, 5 mM MgCl2, 1 mM EGTA and 10 mM β-glycerophosphate. […] The samples were vortexed and kept for 20 minutes at room temperature before transferring into a water bath at 30° C. The reaction was started by adding 10 μl of ATP (cold Mg-ATP and 1 μCi of [γ-^32P] ATP) and the reaction mixture was incubated at 30° C. in a shaker for 1 hr. To assess the kinetics of the reactions, phosphorylation was allowed to proceed for 20 minutes, 1 hour, 4 hours and 24 hours before the reaction was stopped. The reaction was terminated by adding 40 μl of loading Tricine sample buffer (200 mM Tris-HCl, pH 6.8, 2% SDS, 40% glycerol, 0.04% Coomassie G-250 dye). The samples were then boiled in a water bath for five minutes and subjected to electrophoresis on 16.5% Tris-Tricine gel run using Tris-Tricine/SDS buffer (containing 100 mM Tris, 100 mM Tricine, 0.1% SDS, pH 8.3) at 100V for 1.5 hours.
In vitro phosphorylation assay was performed according to conventional procedure. 25 ul reactions containing 1 μg of R-SSD3 peptide indicated by SEQ NO. 2, in the presence and absence of 300 ng of either CK1 or CK2 or both containing 10 μCi ^32P γ [ATP]. The reactions were performed in triplicate at 30° C. for 1 hour, 4 hours and 24 hours using one batch of radiolabeled ATP and enzymes from a single lot.
The reaction products were purified using SDS-PAGE, visualized by autoradiography, and band intensities were quantified using a Kodak 1D 3.6 imaging system. After autoradiography, the gel was overlaid on the autoradiogram, the individual protein bands were excised and ^32P incorporation was determined using a liquid scintillation counter (Beckman LS6500 system). To calculate the number of moles of phosphates transferred to 1 ug of peptide ([…]) in the kinase reaction, the mean counts per minute obtained in the kinase reactions from triplicates (minus blank) are divided by the specific activity of the ^32Pγ[ATP] in the kinase assay, as follows.

T1 sequence (P68400 whole entry): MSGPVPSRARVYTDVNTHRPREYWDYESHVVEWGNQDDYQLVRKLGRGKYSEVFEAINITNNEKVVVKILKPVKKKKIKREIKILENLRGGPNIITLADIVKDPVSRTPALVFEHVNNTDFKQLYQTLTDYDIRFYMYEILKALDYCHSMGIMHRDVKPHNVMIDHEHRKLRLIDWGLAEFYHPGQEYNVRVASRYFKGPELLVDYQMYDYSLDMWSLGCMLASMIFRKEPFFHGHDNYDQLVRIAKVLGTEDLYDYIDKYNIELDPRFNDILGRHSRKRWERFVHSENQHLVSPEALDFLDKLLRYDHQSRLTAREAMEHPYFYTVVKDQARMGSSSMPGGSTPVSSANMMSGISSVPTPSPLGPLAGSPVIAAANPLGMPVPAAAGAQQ
T1 sequence (P67870 whole entry partner): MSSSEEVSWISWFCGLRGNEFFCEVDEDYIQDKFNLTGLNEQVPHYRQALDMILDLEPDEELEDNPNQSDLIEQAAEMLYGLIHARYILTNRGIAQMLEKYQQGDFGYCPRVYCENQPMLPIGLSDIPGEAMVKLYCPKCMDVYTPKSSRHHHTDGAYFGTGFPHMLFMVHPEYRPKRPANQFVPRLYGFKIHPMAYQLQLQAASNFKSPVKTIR
T2 sequence (P02454 152-1207 limits assumed): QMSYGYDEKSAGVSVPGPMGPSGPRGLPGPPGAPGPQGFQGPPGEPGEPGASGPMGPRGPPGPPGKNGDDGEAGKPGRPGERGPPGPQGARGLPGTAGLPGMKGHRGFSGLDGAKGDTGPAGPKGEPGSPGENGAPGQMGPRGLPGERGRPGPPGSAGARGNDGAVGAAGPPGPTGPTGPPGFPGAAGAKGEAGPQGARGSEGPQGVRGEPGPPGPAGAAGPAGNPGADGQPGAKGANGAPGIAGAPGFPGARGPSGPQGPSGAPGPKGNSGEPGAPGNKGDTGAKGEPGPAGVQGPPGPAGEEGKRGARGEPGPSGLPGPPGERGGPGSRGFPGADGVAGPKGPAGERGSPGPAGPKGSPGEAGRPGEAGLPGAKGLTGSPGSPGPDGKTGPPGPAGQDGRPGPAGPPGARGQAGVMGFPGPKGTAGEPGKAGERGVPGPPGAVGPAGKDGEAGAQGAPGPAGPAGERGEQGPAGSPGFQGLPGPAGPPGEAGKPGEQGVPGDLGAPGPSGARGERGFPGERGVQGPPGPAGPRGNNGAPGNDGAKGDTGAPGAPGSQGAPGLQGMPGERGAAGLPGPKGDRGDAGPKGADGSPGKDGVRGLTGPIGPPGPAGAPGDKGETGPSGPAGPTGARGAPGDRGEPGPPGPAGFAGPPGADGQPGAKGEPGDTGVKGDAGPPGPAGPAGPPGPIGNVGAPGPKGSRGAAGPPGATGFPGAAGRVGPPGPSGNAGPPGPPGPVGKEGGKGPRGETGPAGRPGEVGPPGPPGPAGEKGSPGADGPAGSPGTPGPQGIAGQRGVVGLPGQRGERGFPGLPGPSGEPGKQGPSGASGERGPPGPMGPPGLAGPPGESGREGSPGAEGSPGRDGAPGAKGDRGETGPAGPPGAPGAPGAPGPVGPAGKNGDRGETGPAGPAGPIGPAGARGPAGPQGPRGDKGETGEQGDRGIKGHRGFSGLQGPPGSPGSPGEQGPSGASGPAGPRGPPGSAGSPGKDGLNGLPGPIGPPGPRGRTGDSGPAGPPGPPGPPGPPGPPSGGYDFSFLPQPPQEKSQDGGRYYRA
T2 sequence (P02466 86-1125 limits assumed): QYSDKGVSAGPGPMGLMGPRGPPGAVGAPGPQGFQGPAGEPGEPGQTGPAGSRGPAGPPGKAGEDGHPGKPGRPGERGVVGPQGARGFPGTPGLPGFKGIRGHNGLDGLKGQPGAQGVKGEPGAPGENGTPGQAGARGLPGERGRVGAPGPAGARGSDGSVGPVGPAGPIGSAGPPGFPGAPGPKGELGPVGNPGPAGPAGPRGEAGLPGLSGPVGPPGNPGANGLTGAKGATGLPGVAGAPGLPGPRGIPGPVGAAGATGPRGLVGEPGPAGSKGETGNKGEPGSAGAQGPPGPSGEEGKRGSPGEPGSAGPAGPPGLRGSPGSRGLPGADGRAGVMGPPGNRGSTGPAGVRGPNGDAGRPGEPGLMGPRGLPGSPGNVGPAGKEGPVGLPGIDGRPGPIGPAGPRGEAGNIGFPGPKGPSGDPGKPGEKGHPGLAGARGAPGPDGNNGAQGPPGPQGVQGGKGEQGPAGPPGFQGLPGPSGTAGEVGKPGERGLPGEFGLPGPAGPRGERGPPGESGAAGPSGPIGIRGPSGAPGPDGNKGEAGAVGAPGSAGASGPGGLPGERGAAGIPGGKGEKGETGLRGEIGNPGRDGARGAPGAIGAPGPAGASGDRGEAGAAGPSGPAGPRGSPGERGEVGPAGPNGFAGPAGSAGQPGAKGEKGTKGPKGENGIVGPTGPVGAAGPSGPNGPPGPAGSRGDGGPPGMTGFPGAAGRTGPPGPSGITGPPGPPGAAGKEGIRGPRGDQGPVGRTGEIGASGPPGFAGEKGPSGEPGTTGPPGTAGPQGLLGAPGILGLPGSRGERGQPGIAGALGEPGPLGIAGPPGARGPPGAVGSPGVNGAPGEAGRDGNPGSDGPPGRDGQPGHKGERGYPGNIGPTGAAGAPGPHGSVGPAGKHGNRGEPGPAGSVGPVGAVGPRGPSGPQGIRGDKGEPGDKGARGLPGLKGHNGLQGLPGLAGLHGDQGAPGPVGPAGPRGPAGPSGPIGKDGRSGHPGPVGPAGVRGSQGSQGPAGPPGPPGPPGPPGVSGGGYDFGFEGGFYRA

B1: … (peptide)
chain: RRRDEDESSDSSDSSDSSDSSDSSDSSDSSDSSDSSDSSDSSDSSDSSDSSDSSDSSDSSDSSDSSDDEG
modifications: derived from consensus mammalian sequence of DSPP; (8)..(68) [Asp Ser Ser] repeats (n varies from 2 to 20); (1)..(3) Insertion of 3 Arg at the N terminus of the peptide; (4)..(7) Casein kinase 1 recognition motif; (69)..(71) Casein kinase 2 recognition motif
With B1 the “share of all serines phosphorylated” value (CK1 and CK2; CK1+CK2 group, 24 hours) was 58%, the “average number of phosphates per peptide” value (CK1 and CK2; CK1 and CK2, 1 hour) was 0.0191 (0.007) phosphates per peptide and the “average number of phosphates per peptide” value (CK1 and CK2; CK1 and CK2, 4 hours) was 0.343 (0.124) phosphates per peptide. For the same molecule, the “average number of phosphates per peptide” value (CK1 and CK2; CK1 and CK2, 24 hours) was 3.5 phosphates per peptide and 3.4555 (1.755) phosphates per peptide, the “average number of phosphates per peptide” value (Casein Kinase 2 (CK2); CK2, 1 hour) was 0.0148 (0.015) phosphates per peptide and the “average number of phosphates per peptide” value (Casein Kinase 2 (CK2); CK2, 4 hours) was 0.435 (0.099) phosphates per peptide. The “average number of phosphates per peptide” value (Casein Kinase 2 (CK2); CK2, 24 hours) was 4.4 phosphates per peptide and 4.354 (0.957) phosphates per peptide, the “share of all serines phosphorylated” value (Casein Kinase 2 (CK2); CK2 group, 24 hours) was 73% and the “collagen fibril mineralization pattern” value (type I collagen fibrils; 15 μg/ml peptide, 16 hours, 37° C., pH 7.8, TEM) was “randomly oriented crystals formed throughout the grid”. For the same molecule, the “mineral nucleation outside of the collagen fibrils” value (type I collagen fibrils; TEM, phosphorylated peptide experiments) was “suppressed mineral nucleation outside of the collagen fibrils”, the “maximum number of phosphates incorporated onto the peptide” value (mixture of CK1 and CK2) was “four out of six possible” and the “average number of phosphates per peptide” value (Casein Kinase 1 (CK1); CK1, 1 hour) was 0.006 (0.002) phosphates per peptide. For the same molecule, the “average number of phosphates per peptide” value (Casein Kinase 1 (CK1); CK1, 4 hours) was 0.139 (0.103) phosphates per peptide, the “average number of phosphates per peptide” value (Casein Kinase 1 (CK1); CK1, 24 hours) was 1.8 phosphates per peptide and 1.778 (1.196) phosphates per peptide and the “share of all serines phosphorylated” value (Casein Kinase 1 (CK1); CK1 group, 24 hours) was 30%.

From patent US10736988B2, “Bone substitute nanocomposites and methods of synthesis using multiphosphorylated peptides” (UNIVERSITY OF PITTSBURGH—OF THE COMMONWEALTH SYSTEM OF …, priority 2012, dated 2020)
